How the values were obtained:
HLA-A*01:01 = assay: IEDB peptide-MHC binding, purified MHC/competitive/radioactivity; filed as Kd, often an IC50 or EC50 that approximates it; ≥ and ≤ were set here for values at or beyond the usual limits of such assays
HLA-A*26:01 [1] = assay: as above
HLA-A*29:02 = assay: as above
HLA-A*30:01 = assay: as above
HLA-A*30:02 = assay: as above
HLA-A*32:01 = assay: as above
HLA-B*08:01 [2] = assay: as above
HLA-B*44:02 = assay: as above
HLA-A*03:01 [3] = assay: as above; details: source organism: Dengue virus 4 Philippines/H241/1956
HLA-A*11:01 [4] = assay: as above; details: source organism: Dengue virus 4 Philippines/H241/1956
HLA-A*02:01 = assay: IEDB peptide-MHC binding, purified MHC/competitive/fluorescence; filed as Kd, often an IC50 or EC50 that approximates it; ≥ and ≤ were set here for values at or beyond the usual limits of such assays
HLA-A*03:01 [5] = assay: IEDB peptide-MHC binding, purified MHC/direct/fluorescence; filed as Kd, often an IC50 or EC50 that approximates it; ≥ and ≤ were set here for values at or beyond the usual limits of such assays; details: source organism: Haemophilus influenzae
HLA-A*11:01 [6] = assay: as above; details: source organism: Haemophilus influenzae
HLA-A*31:01 = assay: as above; details: source organism: Haemophilus influenzae
HLA-B*15:01 = assay: as above; details: source organism: Haemophilus influenzae
HLA-B*58:01 = assay: as above; details: source organism: Haemophilus influenzae
HLA-B*46:01 = assay: as above; details: source organism: Yellow fever virus
HLA-A*26:01 [7] = assay: as above; details: source organism: Influenza A virus (A/Egypt/96/2002(H1N2))
HLA-B*08:01 [8] = assay: as above; details: source organism: West Nile virus
HLA-A*23:01 = assay: IEDB peptide-MHC binding, purified MHC/competitive/radioactivity; filed as Kd, often an IC50 or EC50 that approximates it; ≥ and ≤ were set here for values at or beyond the usual limits of such assays
HLA-A*24:02 = assay: as above
[9] = source organism: Lymphocytic choriomeningitis virus (strain WE)
[10] = source organism: Dengue virus 3 Martinique/1243/1999
[11] = source organism: Vaccinia virus WR
[12] = source organism: Vaccinia virus Copenhagen
[13] = source organism: Dengue virus 2 Jamaica/1409/1983
[14] = source organism: Mammarenavirus guanaritoense
[15] = source organism: Lassa virus Josiah
[16] = source organism: SARS coronavirus Tor2

## LTDNDDILM
HLA-A*01:01; [9]
  Kd: 21.3 nM
HLA-A*26:01 [1]; [9]
  Kd: ≥ 47400 nM
HLA-A*29:02; [9]
  Kd: 9140 nM
HLA-A*30:01; [9]
  Kd: 19200 nM
HLA-A*30:02; [9]
  Kd: 587 nM
HLA-A*32:01; [9]
  Kd: 12600 nM

## LTQKVVIFIL
HLA-B*08:01 [2]; [10]
  Kd: 3100 nM

## MEIRPISEK
HLA-B*44:02; [10]
  Kd: 1260 nM

## MFGTRKNSF
HLA-B*08:01 [2]; [11]
  Kd: 2.04 nM

## MTCGQPLSL
HLA-A*32:01; [11]
  Kd: 5.56 nM

## MTLWYMWQVK
HLA-A*03:01 [3]
  Kd: 7.82 nM
HLA-A*11:01 [4]
  Kd: 6.51 nM
HLA-A*32:01; source organism: Dengue virus 4 Philippines/H241/1956
  Kd: 927 nM

## MTSERTLAV
HLA-A*02:01; source organism: Yersinia pestis Nepal516
  Kd: 57.7 nM

## NLIIHTAAL
HLA-B*08:01 [2]; [11]
  Kd: 1.55 nM

## RIIMLNFSI
HLA-A*32:01; [12]
  Kd: ≥ 77800 nM

## RKKARNTPF
HLA-B*08:01 [2]; source organism: Dengue virus 2 Peru/IQT2913/1996
  Kd: 82.7 nM

## RLFFIDWEY
HLA-A*03:01 [5]
  Kd: 1060 nM
HLA-A*11:01 [6]
  Kd: 5270 nM
HLA-A*31:01
  Kd: 905 nM
HLA-B*15:01
  Kd: 296 nM
HLA-B*58:01
  Kd: 190 nM

## RLPNLFHIL
HLA-B*08:01 [2]; [11]
  Kd: 68.5 nM

## RPKIKTNDI
HLA-B*08:01 [2]; [11]
  Kd: 2.11 nM

## RREEEEAGVL
HLA-B*08:01 [2]; [13]
  Kd: 2160 nM

## RTISESNTI
HLA-A*32:01; [11]
  Kd: 960 nM

## RTWHYCGSY
HLA-B*46:01
  Kd: ≥ 20000 nM

## RVMVSPLAV
HLA-A*02:01; source organism: Influenza A virus H3N2
  Kd: 0.9 nM

## SEVSNVQRI
HLA-B*44:02; source organism: Lymphocytic choriomeningitis virus (strain Armstrong) (clone 53b)
  Kd: 12 nM

## SIKSKSRRL
HLA-B*08:01 [2]; [11]
  Kd: 29.8 nM

## SIYRMSYQF
HLA-A*32:01; [11]
  Kd: 0.798 nM

## SMTKKFKTI
HLA-B*08:01 [2]; [11]
  Kd: 151 nM

## SNRAIFVPI
HLA-B*08:01 [2]; [11]
  Kd: 127 nM

## SQMERFNCS
HLA-B*08:01 [2]; [12]
  Kd: 38.8 nM

## STLELRSGY
HLA-A*26:01 [7]
  Kd: 24.8 nM

## SWDNTSVDLY
HLA-A*01:01; [14]
  Kd: 1280 nM
HLA-A*26:01 [1]; [14]
  Kd: ≥ 69700 nM
HLA-A*29:02; [14]
  Kd: 856 nM
HLA-A*30:01; [14]
  Kd: 9330 nM
HLA-A*30:02; [14]
  Kd: 147 nM
HLA-A*32:01; [14]
  Kd: ≥ 69900 nM

## TEVDRTEAK
HLA-B*44:02; [10]
  Kd: ≥ 20800 nM

## TKQTGSASSM
HLA-B*08:01 [2]; [13]
  Kd: 1440 nM

## TPMMRHTIE
HLA-B*08:01 [2]; source organism: Dengue virus 1 Brazil/97-11/1997
  Kd: 7.23 nM

## TTDFTRLRY
HLA-A*01:01; [14]
  Kd: 7.53 nM
HLA-A*26:01 [1]; [14]
  Kd: 2410 nM
HLA-A*29:02; [14]
  Kd: 59.5 nM
HLA-A*30:01; [14]
  Kd: 1930 nM
HLA-A*30:02; [14]
  Kd: 551 nM
HLA-A*32:01; [14]
  Kd: 11500 nM

## VISNLVLSY
HLA-A*32:01; [11]
  Kd: 808 nM

## WLHRGPKEF
HLA-B*08:01 [8]
  Kd: 2510 nM

## YCNYSKYWY
HLA-A*01:01; [15]
  Kd: 15800 nM
HLA-A*23:01; [15]
  Kd: 13600 nM
HLA-A*24:02; [15]
  Kd: ≥ 44400 nM
HLA-A*26:01 [1]; [15]
  Kd: ≥ 77900 nM
HLA-A*29:02; [15]
  Kd: 713 nM
HLA-A*30:02; [15]
  Kd: 668 nM

## YIESKRGVY
HLA-A*01:01; [16]
  Kd: 145 nM
HLA-A*23:01; [16]
  Kd: ≥ 77800 nM
HLA-A*24:02; [16]
  Kd: ≥ 77600 nM
HLA-A*26:01 [1]; [16]
  Kd: 735 nM
HLA-A*29:02; [16]
  Kd: 20.3 nM
HLA-A*30:02; [16]
  Kd: 47 nM

## YRIAKFLFM
HLA-B*08:01 [2]; [11]
  Kd: 16.8 nM

## YSEESPTEY
HLA-A*01:01; [14]
  Kd: 225 nM
HLA-A*26:01 [1]; [14]
  Kd: ≥ 77900 nM
HLA-A*29:02; [14]
  Kd: ≥ 25400 nM
HLA-A*30:01; [14]
  Kd: 19400 nM
HLA-A*30:02; [14]
  Kd: ≥ 76900 nM
HLA-A*32:01; [14]
  Kd: ≥ 77800 nM

## YYSLLMPIL
HLA-A*01:01; [16]
  Kd: ≥ 78100 nM
HLA-A*23:01; [16]
  Kd: ≥ 43900 nM
HLA-A*24:02; [16]
  Kd: ≥ 77600 nM
HLA-A*26:01 [1]; [16]
  Kd: 13700 nM
HLA-A*29:02; [16]
  Kd: ≥ 75000 nM
HLA-A*30:02; [16]
  Kd: ≥ 81100 nM
